These results are taken from US20070293656A1, “COLLAGEN BINDING PEPTIDES” (Epix Pharmaceuticals, Inc., priority 2005, published 2007).

The chains are these.
B1: SEQ ID NO: 47 (peptide)
peptide: PWTCRMTENTWVCDLN
modifications: disulfide 4-13 (inferred)
B2: SEQ ID NO: 23 (peptide)
peptide: AWDCSGNIPTWYCRRL
modifications: disulfide 4-13 (inferred)
B3: SEQ ID NO: 103 (peptide)
peptide: YPACDDQTHLWNLACWPA
modifications: disulfide 4-15 (inferred)
B4: SEQ ID NO: 34 (peptide)
peptide: MWDCTGNSAEWRCEMQ
modifications: disulfide 4-13 (inferred)
B5: SEQ ID NO: 88 (peptide)
peptide: FWTCMRDQVGEWHCGTE
modifications: disulfide 4-14 (inferred)
B6: SEQ ID NO: 94 (peptide)
peptide: WTDCQWMDEQLWTCRWD
modifications: disulfide 4-14 (inferred)
B7: SEQ ID NO: 95 (peptide)
peptide: WTDCQWMDEQIWTCRWD
modifications: disulfide 4-14 (inferred)
B8: SEQ ID NO: 7 (peptide)
peptide: NWYCTGTKSWECFWK
modifications: disulfide 4-12 (inferred)
B9: SEQ ID NO: 31 (peptide)
peptide: GWVCGGDHTTWECHLQ
modifications: disulfide 4-13 (inferred)
B10: SEQ ID NO: 48 (peptide)
peptide: AWSCWIVEGRWNCSDI
modifications: disulfide 4-13 (inferred)
B11: SEQ ID NO: 33 (peptide)
peptide: AWTCVGGEKTWGCVWN
modifications: disulfide 4-13 (inferred)
B12: SEQ ID NO: 24 (peptide)
peptide: EWLCVGDSLKWYCKHS
modifications: disulfide 4-13 (inferred)
B13: SEQ ID NO: 17 (peptide)
peptide: DWTCSGDEYTWHCNYE
modifications: disulfide 4-13 (inferred)
B14: SEQ ID NO: 16 (peptide)
peptide: DWTCSGDEYYWHCNYE
modifications: disulfide 4-13 (inferred)
B15: SEQ ID NO: 15 (peptide)
peptide: DWTCYGDEYTWHCNYE
modifications: disulfide 4-13 (inferred)
B16: SEQ ID NO: 14 (peptide)
peptide: DWTCRGDEYTWHCNYE
modifications: disulfide 4-13 (inferred)
B17: SEQ ID NO: 18 (peptide)
peptide: DWTCSGDEYTWYCNYE
modifications: disulfide 4-13 (inferred)
B18: SEQ ID NO: 19 (peptide)
peptide: DWTCSGDEYRWHCNYE
modifications: disulfide 4-13 (inferred)
B19: SEQ ID NO: 22 (peptide)
peptide: DWECHGNEFEWNCLMR
modifications: disulfide 4-13 (inferred)
B20: SEQ ID NO: 11 (peptide)
peptide: PLVCHPPYSGSCSLH
modifications: disulfide 4-12 (inferred)
B21: SEQ ID NO: 4 (peptide)
peptide: TWMCVDPPLWRCWVQ
modifications: disulfide 4-12 (inferred)
B22: SEQ ID NO: 46 (peptide)
peptide: GWVCLQKGPKWVCDWD
modifications: disulfide 4-13 (inferred)
B23: SEQ ID NO: 21 (peptide)
peptide: DWTCVGDHKTWKCNFH
modifications: disulfide 4-13 (inferred)
B24: SEQ ID NO: 102 (peptide)
peptide: WAYCMTDPSGKYRYCQNW
modifications: disulfide 4-15 (inferred)
B25: SEQ ID NO: 5 (peptide)
peptide: NWKCWGVVKWECIWA
modifications: disulfide 4-12 (inferred)
B26: SEQ ID NO: 45 (peptide)
peptide: EWQCTQYANQWNCKYN
modifications: disulfide 4-13 (inferred)
B27: SEQ ID NO: 30 (peptide)
peptide: GWDCQGTDNIWECVRK
modifications: disulfide 4-13 (inferred)
B28: SEQ ID NO: 92 (peptide)
peptide: TWACGWTTTGWDNCRWI
modifications: disulfide 4-14 (inferred)
B29: SEQ ID NO: 42 (peptide)
peptide: TWRCDQFKGKWVCRGG
modifications: disulfide 4-13 (inferred)
B30: SEQ ID NO: 43 (peptide)
peptide: PWQCYSDKTSWVCNLY
modifications: disulfide 4-13 (inferred)
B31: SEQ ID NO: 6 (peptide)
peptide: TWQCSGNQKWSCEWF
modifications: disulfide 4-12 (inferred)
B32: SEQ ID NO: 101 (peptide)
peptide: WWTCHMTWSGQWDSCKWH
modifications: disulfide 4-15 (inferred)
B33: SEQ ID NO: 35 (peptide)
peptide: YWVCGGDHQSWHCSHP
modifications: disulfide 4-13 (inferred)
B34: SEQ ID NO: 90 (peptide)
peptide: TWACGWTTTGWDNCRWI
modifications: disulfide 4-14 (inferred)
B35: SEQ ID NO: 96 (peptide)
peptide: WQLCSSRNDHVAYCFVS
modifications: disulfide 4-14 (inferred)
B36: SEQ ID NO: 44 (peptide)
peptide: GWNCYEYDSQWICDHL
modifications: disulfide 4-13 (inferred)
B37: SEQ ID NO: 29 (peptide)
peptide: DWICHGDFDTWKCDLQ
modifications: disulfide 4-13 (inferred)
B38: SEQ ID NO: 10 (peptide)
peptide: LTVCHPPYYGRCNFV
modifications: disulfide 4-12 (inferred)
B39: SEQ ID NO: 26 (peptide)
peptide: WRCDGDAHDWHCDWF
modifications: disulfide 3-12 (inferred)
B40: SEQ ID NO: 99 (peptide)
peptide: AKKCWYNDGGHLRCRTL
modifications: disulfide 4-14 (inferred)
B41: SEQ ID NO: 12 (peptide)
peptide: PMICHAPYVGKCNFL
modifications: disulfide 4-12 (inferred)
B42: SEQ ID NO: 97 (peptide)
peptide: WISCESSEEKISYCWRA
modifications: disulfide 4-14 (inferred)
B43: SEQ ID NO: 32 (peptide)
peptide: NWVCSGDHADWSCALI
modifications: disulfide 4-13 (inferred)
B44: SEQ ID NO: 9 (peptide)
peptide: TWNCYGVTEWHCYMI
modifications: disulfide 4-12 (inferred)
B45: SEQ ID NO: 40 (peptide)
peptide: EWRCRGDSSSWLCDYT
modifications: disulfide 4-13 (inferred)
B46: SEQ ID NO: 25 (peptide)
peptide: IWLCTGGAATWNCKFD
modifications: disulfide 4-13 (inferred)
B47: SEQ ID NO: 20 (peptide)
peptide: PWYCSGDHLDWKCIYQ
modifications: disulfide 4-13 (inferred)
B48: SEQ ID NO: 89 (peptide)
peptide: KWHCELDSHMEWSCSGH
modifications: disulfide 4-14 (inferred)
B49: SEQ ID NO: 93 (peptide)
peptide: WWACQKGQHDWEKCHWL
modifications: disulfide 4-14 (inferred)
B50: SEQ ID NO: 27 (peptide)
peptide: SWHCFGDNENWMCNLR
modifications: disulfide 4-13 (inferred)
B51: SEQ ID NO: 100 (peptide)
peptide: WWGCRQGTGEHWSHCMWF
modifications: disulfide 4-15 (inferred)
B52: SEQ ID NO: 28 (peptide)
peptide: SWICTGDNIDWNCRFA
modifications: disulfide 4-13 (inferred)
B53: SEQ ID NO: 41 (peptide)
peptide: VWACRGGTTNWHCDL
modifications: disulfide 4-13 (inferred)

Bridge positions count the residues as written; N and C are the ends. Ends that are not written are not given here.

The target in this experiment is T1, human collagen type I (acid soluble, extracted from placenta, Sigma C7774) (human, UniProt P02452 162-1218; P08123 80-1119).
T1 construct: gelled and dried as a fibril film in the assay; also called dried human collagen; h-Collagen
T1 sequence (P02452 162-1218 limits assumed, chain 1 of 2): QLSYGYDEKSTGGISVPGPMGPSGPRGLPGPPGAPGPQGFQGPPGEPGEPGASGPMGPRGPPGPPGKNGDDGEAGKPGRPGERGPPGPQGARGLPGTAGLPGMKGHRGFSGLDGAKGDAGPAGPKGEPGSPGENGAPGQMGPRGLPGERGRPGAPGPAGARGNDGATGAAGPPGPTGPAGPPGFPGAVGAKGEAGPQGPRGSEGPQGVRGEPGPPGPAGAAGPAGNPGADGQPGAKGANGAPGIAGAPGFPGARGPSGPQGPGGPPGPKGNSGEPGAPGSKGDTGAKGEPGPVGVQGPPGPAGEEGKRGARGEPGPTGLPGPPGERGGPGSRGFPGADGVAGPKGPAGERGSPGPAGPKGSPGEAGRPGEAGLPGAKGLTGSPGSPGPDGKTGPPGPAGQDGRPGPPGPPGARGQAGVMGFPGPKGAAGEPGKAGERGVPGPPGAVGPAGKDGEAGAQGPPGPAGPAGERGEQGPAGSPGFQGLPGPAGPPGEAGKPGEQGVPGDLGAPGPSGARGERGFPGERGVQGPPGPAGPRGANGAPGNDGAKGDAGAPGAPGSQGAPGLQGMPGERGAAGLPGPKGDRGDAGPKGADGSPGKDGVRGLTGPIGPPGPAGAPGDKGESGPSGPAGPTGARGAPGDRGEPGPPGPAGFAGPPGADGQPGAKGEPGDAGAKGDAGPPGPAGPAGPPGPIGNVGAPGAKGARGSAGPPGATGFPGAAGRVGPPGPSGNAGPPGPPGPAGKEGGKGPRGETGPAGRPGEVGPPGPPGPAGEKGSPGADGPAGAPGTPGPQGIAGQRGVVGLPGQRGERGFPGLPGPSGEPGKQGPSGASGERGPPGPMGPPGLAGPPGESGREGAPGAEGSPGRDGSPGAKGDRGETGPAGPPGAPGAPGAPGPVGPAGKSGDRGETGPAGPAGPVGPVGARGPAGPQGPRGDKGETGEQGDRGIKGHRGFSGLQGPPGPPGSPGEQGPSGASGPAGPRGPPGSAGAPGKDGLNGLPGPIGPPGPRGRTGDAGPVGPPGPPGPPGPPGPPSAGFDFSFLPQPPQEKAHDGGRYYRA
T1 sequence (P08123 80-1119 limits assumed, chain 2 of 2): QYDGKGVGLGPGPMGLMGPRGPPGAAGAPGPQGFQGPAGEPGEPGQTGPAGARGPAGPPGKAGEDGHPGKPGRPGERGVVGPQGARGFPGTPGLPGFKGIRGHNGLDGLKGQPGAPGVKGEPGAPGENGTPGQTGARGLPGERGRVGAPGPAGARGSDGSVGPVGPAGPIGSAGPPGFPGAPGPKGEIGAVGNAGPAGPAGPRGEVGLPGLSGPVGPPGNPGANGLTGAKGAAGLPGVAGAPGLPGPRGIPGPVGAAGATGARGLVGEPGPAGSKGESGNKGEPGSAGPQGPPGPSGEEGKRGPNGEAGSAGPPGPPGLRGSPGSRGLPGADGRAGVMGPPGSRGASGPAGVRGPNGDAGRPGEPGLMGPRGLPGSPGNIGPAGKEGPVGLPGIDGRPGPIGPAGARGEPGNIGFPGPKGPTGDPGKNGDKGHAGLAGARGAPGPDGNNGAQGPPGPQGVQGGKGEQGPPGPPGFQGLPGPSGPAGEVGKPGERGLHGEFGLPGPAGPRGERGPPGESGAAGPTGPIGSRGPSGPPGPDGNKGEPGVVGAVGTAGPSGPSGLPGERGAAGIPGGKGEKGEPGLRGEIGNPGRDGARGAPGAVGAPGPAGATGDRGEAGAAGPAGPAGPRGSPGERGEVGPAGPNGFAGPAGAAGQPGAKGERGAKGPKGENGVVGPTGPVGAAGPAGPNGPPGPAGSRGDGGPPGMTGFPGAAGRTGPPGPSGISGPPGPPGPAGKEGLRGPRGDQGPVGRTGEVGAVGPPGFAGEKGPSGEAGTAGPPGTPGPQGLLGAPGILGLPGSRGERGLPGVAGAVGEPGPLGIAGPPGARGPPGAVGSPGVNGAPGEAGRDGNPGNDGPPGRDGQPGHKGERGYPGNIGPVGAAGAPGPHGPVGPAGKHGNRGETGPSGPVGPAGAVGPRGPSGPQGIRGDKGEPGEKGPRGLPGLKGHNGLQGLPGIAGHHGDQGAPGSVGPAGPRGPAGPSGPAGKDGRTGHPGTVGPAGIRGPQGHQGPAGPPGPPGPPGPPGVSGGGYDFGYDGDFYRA
Nature of the experiment: dried collagen assay. As for the experimental part: An additional 90 μL is reserved in a HPLC glass vial as a measure of the total concentration.
As to B1, the “% bound” value was 22%. Under B2 stands 44%; under B3, 2%; under B4, 11%.

For the molecule B5, the “% bound” value was 1%. In the case of B6, the “% bound” value is 21%.

B7: the “% bound” value was 5%. The same measure for B8: 11%; for B9: 15%. As for B10, the “% bound” value amounted to 22%.

Turning to B11, the “% bound” value came out at 12%.

As to B12, the “% bound” value was found to be 43%. The same measure for B13: 78%.

Consider B14, for which the “% bound” value came out at 83%. Under B15 stands 83%; under B16, 83%. Regarding B17, the “% bound” value worked out at 78%. The same measure for B18: 70%; for B19: 55%; for B20: 9%.

Consider B21, for which the “% bound” value was determined as 45%. Under B22 stands 23%; under B23, 57%; under B24, 31%. For B25, the “% bound” value was 24%. The same measure for B26: 25%; for B27: 16%; for B28: 34%. With B29, the “% bound” value was determined as 40%. The same measure for B30: 30%; for B31: 20%. In the case of B32, the “% bound” value was determined as 56%. Under B33 stands 8%.

Take B34: the “% bound” value came to 34%. The same measure for B35: 17%; for B36: 28%.

In the case of B37, the “% bound” value turned out to be 16%. Under B38 stands 9%; under B39, 25%; under B40, 3%.

As to B41, the “% bound” value worked out at 7%. Under B42 stands 13%; under B43, 12%; under B44, 7%. Under B45 stands 3%; under B46, 39%.

As for B47, the “% bound” value is 64%. Consider B48, for which the “% bound” value was 1%.

As for B49, the “% bound” value turned out to be 5%. The same measure for B50: 24%. Turning to B51, the “% bound” value is 67%.

For the molecule B52, the “% bound” value is 20%. Under B53 stands 1%.
